# Results: US9611303B2, “Modified biotin-binding protein” (Japan Tobacco Inc., priority 2009, dated 2017)
# Changes are numbered by the printed parent chain. Names may count otherwise. “And” between values parts separate entries of the source, which are not always exact repeats. Equal entries are not always repeated. “Also recorded” adds a separate entry of the source.
# B1: TM2 L97T: TM2 in which the 97th leucine was replaced with threonine (protein)
# chain: MSDVQSSLTGTWYNELNSKMELTANKDGTLTGKYLSKVGDVYVPYPLSGRYNLQPPAGQGVALGWAVSWENSKIHSATTWSGQFFSESSPVILTQWTLSSSTARGDVWESTLVGNDSFTKTAPTEQQIAHAQLHCRAPRLK
# B2: TM2 A66R-V113R: TM2 with 66th alanine and 113th valine replaced with arginine (protein)
# chain: B1 chain with A66R, T97L, V113R
# B3: TM2 W108K: TM2 in which the 108th tryptophan was replaced with lysine (protein)
# chain: B1 chain with T97L, W108K
# B4: TM2 A66R: TM2 in which the 66th alanine was replaced with arginine (protein)
# chain: B1 chain with A66R, T97L
# B5: TM2 A66R-L97T-V113R: TM2 with A66R, L97T and V113R replacements (protein)
# chain: B1 chain with A66R, V113R
# B6: TM2 A66R-L97T: TM2 double mutant A66R and L97T; not in the list of 30 forms, vector named in b302 (protein)
# chain: B1 chain with A66R
# B7: TM2 W69K: TM2 in which the 69th tryptophan was replaced with lysine (protein)
# chain: B1 chain with W69K, T97L
# B8: TM2 V113R: TM2 in which the 113th valine was replaced with arginine (protein)
# chain: B1 chain with T97L, V113R
# B9: TM2 W108E: TM2 in which the 108th tryptophan was replaced with glutamic acid (protein)
# chain: B1 chain with T97L, W108E
# B10: TM2 L97T-V113R: TM2 with 97th leucine replaced with threonine and 113th valine with arginine (protein)
# chain: B1 chain with V113R
# B11: TM2 N14A: TM2 in which the 14th asparagine was replaced with alanine (protein)
# chain: B1 chain with N14A, T97L
# Assay: Purification of LATM2 with biotin-agarose
# Assay type: binding
# Details: not given
# Method: Purification with biotin-agarose (manufactured by Sigma-Aldrich Corp.) was performed by the following procedure. After induced expression of 25 mL of a culture solution of E. coli for each LATM2, the E. coli cells were suspended in 1.5 mL of a 100 mM potassium phosphate buffer (pH 7.0), and then sonicated. To the supernatant of the disrupted cells. 400 μL of biotin-agarose was added, which was followed by upside-down mixing for 1 hr. […]
# In TM2 S36A-T78A-D116A, the E. coli cells were suspended in 1.5 mL of 50 mM CAPS (pH 12) containing 50 mM NaCl, and then sonicated. To the disrupted cells, 400 μL of biotin-agarose was added, which was followed by upside-down mixing for 1 hr. The column was sufficiently washed with 50 mM CAPS (pH 12) containing 500 mM NaCl, and elution was then performed with 1 mL of PBS (pH 7.4) containing 10 mM biotin.
# In TM2 S36A-D116A, the E. coli cells were suspended in 1.5 mL of a 100 mM potassium phosphate buffer (pH 4.0), and then sonicated. To the pupernatant of the disrupted cells, 400 μL of biotin-agarose was added. Washing was performed with a 100 mM potassium phosphate buffer (pH 4) containing 500 mM NaCl, and elution was performed with 1 mL of PBS (pH 7) containing 10 mM biotin. Biotin binding to LATM2 that has been eluted with an excess amount of biotin was removed by dialysis with a 20 mM potassium phosphate buffer overnight.
# (§1) The recovery rate in Table 2 was calculated by dividing the amount of LATM2 protein after purification by the amount of LATM2 protein before purification and was expressed by percent by multiplying the quotient by 100. The degree of purification was the ratio of the amount of LATM2 protein to the total amount of proteins in the purified fraction and was expressed by percent by multiplying the ratio by 100. The recovery rates and the degrees of purification in biotin-agarose were the results after binding at pH 7 and elution with an excess amount of biotin.
binding to biotin-agarose,Molecule,elution from biotin-agarose with an excess amount of biotin
bound to biotin-agarose,B1,not eluted
did not bind,B2,–

# Same assay, conditions: Biotin-agarose, binding at pH 7, recovery with 10 mM biotin
row,Molecule,Recover rate (%)
1,B3,95
2,B4,50
3,B1,0
4,B5,30
5,B6,80
6,B2,0
7,B7,50
8,B8,30
9,B9,95
10,B10,70
11,B11,50

# Same assay, conditions: Biotin-agarose, elution with acetic acid
row,Molecule,recover rate by elution with acetic acid
1,B7,recover rate: 95%

# Same assay, conditions: binding at pH 7, recovery with 10 mM biotin; FT = flow-through
row,Molecule,Note (Biotin-agarose)
1,B1,not eluted
2,B2,To FT

# Assay: Subunit association by FPLC on Sephacryl S-100HR
# Assay type: physicochemical
# Details: FPLC
# Method: In order to analyze the subunit association conditions of LATM2, the molecular weight of each LATM2s was measured by FPLC. Sephacryl S-100HR (manufactured by GE Healthcare) was used as a column, a Gel Filtration Calibration Kit LMW (manufactured by GE Healthcare) was used as molecular weight markers, and 50 mM potassium phosphate containing 500 mM NaCl was used as a buffer.
# The positions of the peaks of eluted tetramer were defined to be 44 to 47 mL after injection of WT-TM2 as a control. The peak of an eluted monomer appeared at around 63 to 66 mL and the peak of an eluted dimer appeared at around 51 to 54 mL, from result of loading the molecular weight markers.
Molecule,share present as tetramer [%],share present as dimer [%]
B3,100,–
B9,33,67

# Same assay, conditions: Sephacryl S-100HR, 50 mM potassium phosphate, 500 mM NaCl
row,Molecule,Structure (identified by FPLC)
1,B3,Tetramer
2,B7,Tetramer
3,B8,Tetramer
4,B9,"dimer; also recorded: tetramer,"
5,B10,Tetramer
6,B11,Tetramer

# Same assay, conditions: Sephacryl S-100HR, 50 mM potassium phosphate, 500 mM NaCl; dimer peak
row,Molecule,Structure (identified by FPLC)
1,B5,"dimer,"
2,B6,"dimer,"

# Same assay, conditions: Sephacryl S-100HR, 50 mM potassium phosphate, 500 mM NaCl; monomer peak
row,Molecule,Structure (identified by FPLC)
1,B4,monomer
2,B5,monomer

# Same assay, conditions: Sephacryl S-100HR, 50 mM potassium phosphate, 500 mM NaCl; tetramer peak
row,Molecule,Structure (identified by FPLC)
1,B4,"tetramer,"

# Same assay, conditions: of the total, FPLC
row,Molecule,share present as monomer
1,B4,about 30%
2,B5,64.8%
3,B6,90%

# Same assay, conditions: of the total, FPLC; listed as A66R
row,Molecule,share present as monomer [%]
1,B4,30

# Same assay, conditions: tetramer 44 to 47 mL, dimer 51 to 54 mL, monomer 63 to 66 mL
row,Molecule,"Sephacryl (mL), elution peak position"
1,B3,45.14 mL
2,B7,45.09 mL
3,B8,46.49 mL
4,B9,"44.69 mL and 52.30, mL"
5,B10,45.42 mL
6,B11,46.24 mL

# Same assay, conditions: tetramer 44 to 47 mL, dimer 51 to 54 mL, monomer 63 to 66 mL; dimer peak
row,Molecule,"Sephacryl (mL), elution peak position"
1,B5,"54.38, mL"
2,B6,"54.49, mL"

# Same assay, conditions: tetramer 44 to 47 mL, dimer 51 to 54 mL, monomer 63 to 66 mL; monomer peak
row,Molecule,"Sephacryl (mL), elution peak position [mL]"
1,B4,66.15
2,B5,67.21

# Same assay, conditions: tetramer 44 to 47 mL, dimer 51 to 54 mL, monomer 63 to 66 mL; tetramer peak
row,Molecule,"Sephacryl (mL), elution peak position"
1,B4,"45.50, mL"

# Assay: Purification of LATM2 with 2-iminobiotin-agarose
# Assay type: binding
# Details: not given
# Method: LATM2 was purified through a column charged with 2-iminobiotin-agarose (manufactured by Sigma-Aldrich Corp.) in accordance with the method by Hofmann, et al., (1980). IPTG was added to 25 mL of a culture solution of E. coli transformed with each LATM2 in a final concentration of 1 mM to induce expression. The E. coli cells were collected by centrifugation, suspended in 1.5 mL of 50 mM CAPS (pH 12) containing 50 mM NaCl, and then sonicated. To the supernatant of the disrupted cells, 500 μL of 2-iminobiotin-agarose was added, which was then packed in a column. The column was sufficiently washed with 50 mM CAPS (pH 12) containing 500 mM NaCl, and elution was then performed with 50 mM NH4OAC (pH 4).
# as §1
row,binding to 2-iminobiotin-agarose,Molecule
1,did not bind,B4
2,did not bind,B5
3,did not bind,B6
4,did not bind,B2
5,did not bind,B8
6,did not bind,B10

# Same assay, conditions: FT = column flow-through fraction
row,Molecule,Note (Iminobiotin-agarose)
1,B4,To FT
2,B1,To FT
3,B5,To FT
4,B6,To FT
5,B2,To FT
6,B7,To FT
7,B8,To FT
8,B9,To FT
9,B10,To FT

# Same assay, conditions: Iminobiotin-agarose; binding at pH 12, elution with 50 mM NH4OAC (pH 4)
row,Molecule,Recovery rate (%)
1,B3,30
2,B4,0
3,B1,0
4,B5,0
5,B6,0
6,B2,0
7,B7,5
8,B8,0
9,B9,5
10,B10,0
11,B11,10

# Same assay, conditions: purification with 2-iminobiotin-agarose
row,Molecule,recovery rates compared with WT
1,B3,inferior to WT
2,B7,inferior to WT
3,B9,inferior to WT
4,B11,inferior to WT
